In patent US20160369001A1 (JCR PHARMACEUTICALS, published 2016):

What follows are binders tested against T1, recombinant human TfR (rhTfR) (Sino Biological) (human, UniProt P02786 89-760) (assay: ELISA, rhTfR coated on plate, MBP-scFv lysate supernatant, HRP-labelled anti-MBP detection, A450).
T1 construct: Bought protein, coated on 96-well plates at 5 ug/mL; also called human transferrin receptor
Description: E. coli (JM109) was transformed respectively with the mouse and human single-chain anti-hTfR antibody cDNA libraries, and then disseminated on LB plates containing ampicillin (Amp), and cultured overnight at 37° C. On the following day, the colonies formed on the plates were collected one by one, with which Overnight Express™ Instant LB Medium (Novagen), which had been dispensed beforehand to 96-well plates, was inoculated. After the plates were shaken overnight at 37° C., a tenth amount of Popculture Reagent (Novagen) was added to lyse the cells, and following addition of an equal amount of TBS-T, the resulting mixture was centrifuged to collect the supernatant. This supernatant was used as a sample solution.
To each well of the 96-well plates was added 5 μg/mL of recombinant human TfR (rhTfR) (Sino Biological) or 50 μL of bovine gamma globulin (Bio-Rad, Inc.), and the plates were left undisturbed at 4° C. overnight. After removal of the solution, each well was washed once with 300 μL of TBS-T. Then, to each well was added 300 μL of 1% BSA solution, and the plates were left undisturbed for 30 minutes at room temperature. After removal of the solution, 100 μL of the above sample solution was added to each well, and the plates were left undisturbed for two hours at room temperature. After removal of the solution, each well was washed three times with 300 μL of TBS-T, and 50 μL of HRP-labelled anti MBP antibody (Novagen) was added, and the plates were left undisturbed for one hour at room temperature. After removal of the solution, each well was washed three times with 300 μL of TBS-T, then 50 μL of POD substrate solution (Nacalai Tesque, Inc.) was added, and a reaction was allowed to proceed for 10-15 minutes at room temperature. […] Three clones, M11, M23 and M27 were obtained as high affinity clones to rhTfR from the mouse single-chain anti-hTfR antibody cDNA library. A clone (B84) was obtained as a high affinity clone to rhTfR from the human single-chain anti-hTfR antibody cDNA library.

T1 sequence (P02786 89-760 limits assumed): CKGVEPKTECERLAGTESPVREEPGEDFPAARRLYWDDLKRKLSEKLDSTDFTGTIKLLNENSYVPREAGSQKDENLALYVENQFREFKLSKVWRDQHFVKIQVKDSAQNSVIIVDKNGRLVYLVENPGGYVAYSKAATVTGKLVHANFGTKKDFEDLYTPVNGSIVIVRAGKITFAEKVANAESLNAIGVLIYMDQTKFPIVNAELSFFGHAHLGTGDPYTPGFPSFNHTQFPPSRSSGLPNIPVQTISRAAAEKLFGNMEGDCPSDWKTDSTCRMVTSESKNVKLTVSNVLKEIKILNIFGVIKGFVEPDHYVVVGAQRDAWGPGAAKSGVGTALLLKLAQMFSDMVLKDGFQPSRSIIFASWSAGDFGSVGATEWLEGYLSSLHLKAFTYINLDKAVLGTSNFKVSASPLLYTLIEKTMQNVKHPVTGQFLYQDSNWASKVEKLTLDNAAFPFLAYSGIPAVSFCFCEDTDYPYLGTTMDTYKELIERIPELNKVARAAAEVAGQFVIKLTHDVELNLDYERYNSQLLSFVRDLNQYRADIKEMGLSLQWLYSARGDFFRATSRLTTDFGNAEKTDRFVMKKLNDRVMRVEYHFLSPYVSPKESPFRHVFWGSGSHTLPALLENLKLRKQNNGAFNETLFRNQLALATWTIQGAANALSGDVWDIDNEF

| binding result | Binder |
| --- | --- |
| binds | mouse single-chain anti-hTfR antibody of Clone M11 (maltose binding protein fusion, E. coli lysate supernatant) (scFv, not shown: large carriers, Tested in the screening ELISA as an MBP fusion in crude E. coli lysate supernatant and detected with an HRP-labelled anti-MBP antibody; The scFv is light chain, linker, heavy chain) scFv: DYKDIVMTQSHKFMSTSVGDRVSITCKASQDVGTAVAWYQQKPGQSPKLLIYWASTRHTGVPDRFTGSGSGTDFTLTISNVQSEDLADYFCQQYSSYLTFGAGTKLELKRGGGGSGGGGSGGGGSGGGGSEVMLVESGGDLVKPGGSLKLSCAASGFTFSSYGMSWVRQTPDKRLEWVATISSGGSYTYYPDSVKGRFTISRDNAKNTLYLQMSSLKSEDTAMYYCALLRSDWYFDVWGAGTTVTVSS |
| binds | mouse single-chain anti-hTfR antibody of Clone M23 (maltose binding protein fusion, E. coli lysate supernatant) (scFv, not shown: large carriers, Tested in the screening ELISA as an MBP fusion in crude E. coli lysate supernatant and detected with an HRP-labelled anti-MBP antibody) scFv: DYKDIVITQSHKFMSTSVGDRVSITCKASQDVSTAVAWYQQKPGQSPKLLIYSASYRYTGVPDRFTGSGSGTDFTFTISSVQAEDLAVYYCQQHYSTPYTFGGGTKLEIKRGGGGSGGGGSGGGGSGGGGSQVQLQQSGAELVRPGASVTLSCKASGYTFTDYEMHWVKQTPVHGLEWIGAIDPETGGTAYNQKFKGKATLTADKSSSTAYMELRSLTSEDSAVYYCTGWGFDYWGQGTTLTVSS |
| binds | mouse single-chain anti-hTfR antibody of Clone M27 (maltose binding protein fusion, E. coli lysate supernatant) (scFv, not shown: large carriers, Tested in the screening ELISA as an MBP fusion in crude E. coli lysate supernatant; also called Clone 27) scFv: DYKDIVMTQSHKFMSTSVGDRVSITCKASQDVGTAVAWYQQKPGQSPKLLIYWASTRHTGVPDRFTGSGSGTDFTLTISNVQSEDLADYFCQQYSSYPYTFGGGTKLEIKRGGGGSGGGGSGGGGSGGGGSQVQLQQPGSELVRPGASVKLSCKASGYTFTSYWMHWVKQRPGQGLEWIGNIYPGSGSTNYDEKFKSKATLTVDTSSSTAYMQLSSLTSEDSAVYYCTRGATALDYWGQGTTLTVSS |
